Source: paper PMC3821618

Molecular target: TagRFP-T (Entacmaea quadricolor)
Experiment: fluorescence correlation spectroscopy (FCS), molecular brightness analysis; live transfected mouse GHFT1 cells, cytosol; molecular brightness Mb = CPS/(N*Po) from one-component autocorrelation fits, compared with published intrinsic brightness and between FP alone and FP-BZip; 561 nm excitation, 36 °C, 5% CO2

TagRFP-T
fraction of the molecules that are dimers: 30%
